From patent US20250136718A1 (MABWELL THERAPEUTICS, published 2025)

Tests used:
[1] = molecular target: T1, matriptase-3 (TMPRSS7) over-expressed in HEK293T cells (human, UniProt Q7RTY8 1-843); assay: FACS on permeabilized HEK293T cells over-expressing matriptase-3 (TMPRSS7)
T1 sequence: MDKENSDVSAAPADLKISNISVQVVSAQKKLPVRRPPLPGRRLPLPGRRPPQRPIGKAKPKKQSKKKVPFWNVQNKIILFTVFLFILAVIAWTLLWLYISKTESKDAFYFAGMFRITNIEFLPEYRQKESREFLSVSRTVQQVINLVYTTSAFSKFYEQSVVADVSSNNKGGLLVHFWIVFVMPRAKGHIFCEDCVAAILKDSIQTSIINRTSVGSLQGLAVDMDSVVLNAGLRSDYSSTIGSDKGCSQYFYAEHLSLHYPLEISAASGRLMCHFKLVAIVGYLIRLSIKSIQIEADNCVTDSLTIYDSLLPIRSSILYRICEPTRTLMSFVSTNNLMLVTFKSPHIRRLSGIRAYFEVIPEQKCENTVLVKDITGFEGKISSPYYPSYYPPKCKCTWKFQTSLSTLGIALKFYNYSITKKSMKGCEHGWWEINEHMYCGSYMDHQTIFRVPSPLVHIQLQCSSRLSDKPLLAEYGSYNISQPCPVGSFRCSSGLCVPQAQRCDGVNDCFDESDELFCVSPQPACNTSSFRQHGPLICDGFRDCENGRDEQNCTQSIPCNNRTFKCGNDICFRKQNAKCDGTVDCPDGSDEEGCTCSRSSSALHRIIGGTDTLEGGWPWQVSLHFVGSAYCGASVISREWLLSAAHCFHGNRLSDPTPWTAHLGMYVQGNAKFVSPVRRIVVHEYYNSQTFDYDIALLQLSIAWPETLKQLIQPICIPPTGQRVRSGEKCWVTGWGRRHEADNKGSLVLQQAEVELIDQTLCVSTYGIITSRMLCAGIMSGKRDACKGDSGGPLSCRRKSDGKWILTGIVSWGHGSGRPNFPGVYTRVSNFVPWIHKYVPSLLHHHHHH
Excerpt: To determine if anti-TMPRSS6 antibodies bind to homologous matriptases, HEK293T cells over-expressing matriptase (ST14) (SEQ ID NO: 100) (FIGS. 5B, 5E, 5H, 5K, 5N, 5Q), and HEK293T cells over-expressing matriptase-3 (TMPRSS7) (SEQ ID NO: 101) (FIGS. 5C, 5F, 5I, 5L, 5O, 5R) were collected (generated in house). HEK293T cells stably expressing human TMPRSS6 (matriptase-2) (SEQ ID NO: 97) (generated by LakePharma Inc as described above, FIGS. 5A, 5D, 5G, 5J, 5M, 5P) were used as a positive control and HEK293T cells (FIGS. 5A-5R) were used as a negative control (as described above). Cells were blocked and permeabilized with dPBS+3% BSA+0.1% Tween-20 before incubation with various anti-TMPRSS6 antibodies diluted in dPBS+3% BSA+0.1% Tween-20. Cells were incubated with anti-TMPRSS6 antibodies and their humanized variants at a concentration of roughly 1 μg/ml for 1 hr. After incubation, cells were washed with dPBS and incubated with goat anti-mouse IgG conjugated with AlexaFluor-488 (Invitrogen, FIGS. 5A-5I) or goat anti-human IgG conjugated with Allophycocyanin (APC) (Jackson Immuno Research, FIGS. 5J-5R) as a 2° antibody. At last, cells were washed with dPBS and re-suspended with dPBS+1 mM EDTA, and then subjected to FACS analysis using a NOVOCYTE® Flow Cytometer. Bound antibody was determined by excitation at 488 nm and measurement of emission (FITC-A) at 530 nm (FIGS. 5A-5I) or by excitation at 640 nm and measurement of emission (APC-A) at 675 nm (FIGS. 5J-5R). Results for these assays are shown in histogram plots in FIGS. 5A-5R.

human ecto-TMPRSS6-FLAG = molecular target: T2, human ecto-TMPRSS6-FLAG (UniProt Q8IU80 77-811); assay: BLI (Octet)
T2 chain: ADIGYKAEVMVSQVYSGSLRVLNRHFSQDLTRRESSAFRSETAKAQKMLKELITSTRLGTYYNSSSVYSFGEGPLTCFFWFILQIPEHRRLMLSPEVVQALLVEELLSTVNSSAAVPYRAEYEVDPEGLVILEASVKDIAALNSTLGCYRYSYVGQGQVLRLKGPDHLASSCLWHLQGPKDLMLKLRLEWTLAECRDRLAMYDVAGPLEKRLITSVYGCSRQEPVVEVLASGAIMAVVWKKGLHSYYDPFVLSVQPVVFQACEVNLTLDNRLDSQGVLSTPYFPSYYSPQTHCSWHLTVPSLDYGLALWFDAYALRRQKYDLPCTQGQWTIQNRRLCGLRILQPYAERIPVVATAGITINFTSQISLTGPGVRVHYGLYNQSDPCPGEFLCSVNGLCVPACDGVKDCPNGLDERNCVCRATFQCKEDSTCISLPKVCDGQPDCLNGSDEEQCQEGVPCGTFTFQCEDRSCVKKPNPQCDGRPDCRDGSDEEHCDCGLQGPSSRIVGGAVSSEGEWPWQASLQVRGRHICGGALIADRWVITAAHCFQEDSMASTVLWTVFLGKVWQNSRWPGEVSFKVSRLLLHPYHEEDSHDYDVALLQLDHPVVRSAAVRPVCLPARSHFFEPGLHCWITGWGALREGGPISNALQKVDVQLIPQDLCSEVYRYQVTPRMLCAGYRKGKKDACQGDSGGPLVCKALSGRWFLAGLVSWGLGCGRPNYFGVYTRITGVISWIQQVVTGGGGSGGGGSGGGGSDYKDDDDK

Binder | binding result [1] | Kd (human ecto-TMPRSS6-FLAG) [nM]
humanized anti-TMPRSS6 antibody variant hzMWTx-003 Var (antibody, human IgG1, kappa, L234A L235A, V domains shown, Human IgG1 / kappa) VH: QVQLVQSGAEVKKPGASVKVSCKASGFNIEDYYMHWVRQAPGQRLEWMGRIDPEDAETTYSPKFQGRVTIIPDTSANTAYMELSSLRSEDTAVYYCARSIYLDPMDYWGQGTLVTVSS VL: DIQMTQSPKSLSASVGDRVTITCRASQDVTTALAWYQQKPGQSPKLLIYWATTRHSGVPSRFSGSGSGTDFTLTISSLQPEDFATYYCQQHYSTPYTFGQGTKLEIKR | no binding (tested: roughly 1 µg/ml) | 13.7
humanized anti-TMPRSS6 antibody variant hzMWTx-001 Var (antibody, human IgG1, kappa, N297A, V domains shown, Human IgG1 / kappa) VH: EVQLVQSGAEVKKPGASVKVSCKASGYTFTSYWITWVRQAPGQRLEWIGNIYPGSGSTYYNEKFKSKATITRDTSSRTAYMELSSLRSEDTAVYYCAPYDADYAMDYWGQGTLVTVSS VL: DIQMTQSPSSLSASVGDRVTITCKASQDISNYLSWFQQKPGKAPKLLIYRANRLVEGVPSRFSGSGSGTDFTLTISSLQPEDFATYFCLQYDEFPLTFGGGTKVEIKR | no binding (tested: roughly 1 µg/ml) | 3.36
MWTx-001 anti-TMPRSS6 monoclonal antibody (antibody, mouse IgG2a, kappa, V domains shown, Mouse monoclonal antibody from hybridoma (ATCC PTA-126759)) VH: QVQLQQPGAELAKPGASVKMSCKASGYTFTSYWITWVKQRPGQDLEWIGNIYPGSGSTYYNEKFKSKATLTVDTSSRTAYMQLSSLTSADSAVYYCAPYDSDYAMDYWGQGTSVTVSS VL: DIKMTQSPSSMYASLGERVTITCKASQDINNYLSWFQQKPGKSPKTLIYRANRLVDGVPSRVSGSGSGQDYSLTISSLEYEDVGIYFCLQYDEFPLTFGAGTKLELKR | no binding (tested: roughly 1 µg/ml) | 0.66
MWTx-003 anti-TMPRSS6 monoclonal antibody (antibody, mouse IgG2b, kappa, V domains shown, Mouse monoclonal antibody from hybridoma (ATCC PTA-126761); The recombinant version r4K12B has the same HC and LC; also called r4K12B; recombinant MWTx-003) VH: EVQLQQSGAELVKPGASVKLSCTASGFNIEDYYIHWVKERTEQGLEWIGRIDPEDGETTYAPQFQGKATIIPDTSSNTAYMQLSSLTSEDAAVYYCARSIYLDPMDYWGQGTSVTVSS VL: DIVMTQSHKFMSTSVGDRVSITCKASQDVTTAVAWYQQKPGQSPKILIYWATTRHTGVPDRFTGSISGTTYILTISSVQAEDLALYYCQQHYSTPYTFGGGTKLEIKR | no binding (tested: roughly 1 µg/ml) | 6.4
humanized anti-TMPRSS6 antibody variant hzMWTx-002 Var (antibody, human IgG1, kappa, N297A, V domains shown, Human IgG1 / kappa) VH: EVQLVQSGAEVKKPGASVKVSCKASGFNIKDYYIHWVRQATGQGLEWMGRIDPEDAESEYAPKFQGRVTITADTSTDTAYMELSSLRSEDTAVYYCTRGDSMMVTYFDYWGQGTLVTVSS VL: DIQMTQSPSSLSASVGDRVTITCKASQDVSTAVAWYQQKPGKAPKLLIYWAFTRHTGVPSRFSGSGSGTDYALTISSLQPEDFATYYCQQHYRSPWTFGGGTKVEIKR | no binding (tested: roughly 1 µg/ml) | 18.4
MWTx-002 anti-TMPRSS6 monoclonal antibody (antibody, mouse IgG2b, kappa, V domains shown, Mouse monoclonal antibody from hybridoma (ATCC PTA-126760)) VH: EVQLQQSGAELVKPGASVKLSCTASGFNIKDYYIHWVKERTEQGLEWFGRIDPEDGESEYAPKFQGKATLTADTSSNTAYLQLSSLTSEDTAVYYCTRGDSMMVTYFDYWGQGTTLTVSS VL: DIVMTQSHKFMSTSVGDRVSITCKASQDVSTAVAWYQQKPGQSPKLLIYWAFTRHTGVPDRFTSTGSGTDYALTISSVQAEDLALYYCQQHYRSPWTFGGGTKLEIKR | no binding (tested: roughly 1 µg/ml) | 0.82
